From patent WO2006046344A1 (dated 2006)

Key:
bovine α form prion = bovine α form prion (bovine, UniProt P10279 102-241)
human α form prion = human α form prion (human, UniProt P04156 90-230)

| Binder | Kd (bovine α form prion) | Kd (human α form prion) |
| --- | --- | --- |
| huPrP-39 (scFv, V domains shown) VH: EVQLVQSGGGLVQPGRSLRLSCAASGFTFGDYAMSWVRQAPGKGPEWIATISSSGDILDYADSVRGRFSISRDNAQRSLHLQMTSLRPDDSAIYYCAREYFFSFDVWGRGTTVTVSS VL: QSVLAQPPSLSVSPGQTARITCSGDGVGSGFVSWYQQRPGQSPSVVIYDDAKRPSGIPERFSGSNSGDTATLTISESRAVDEADYYCQTWDSRSPVFGGGTKVTVLG | 29 nM | 33 nM |
| boPrP-2 (scFv, V domains shown) VH: QVQLVQSGGGLVQPGRSLRLSCAASGFTFDDYAMHWVRQAPGKGLEWVSGISWNSGSIGYADSVKGRFTISRDNAKNSLYLQMNSLRAEDTALYYCAKGGGSYYYFDYWGQGTLVTVSS VL: QSVLTQPPSVSGAPGQRVSISCTGNRSNIGAGYDVHWYQQVPGMAPKLLIYGNTKRPSGVPDRFSGSKSGTSASLAITGLQAEDEADYYCQSFDNTLSDSRWVFGGGTKLTVLG | 410 nM | 110 nM |
| boPrP-20 (scFv, V domains shown) VH: QVQLVQSGGGLVQPGRSLRLSCAASGFTFDDYAMHWVRQAPGKGLEWVSGISWNSGSIGYADSVKGRFTISRDNAKNSLYLQMNSLRAEDTALYYCAKQGDEAAAGTGFDYWGQGTLVTVSS VL: QSVLTQPPSASAAPGQGVTISCSGSSSNIGTNTVAWYQHLPETAPKLLIYHDSQRPSRVPGRVSGSKSGTSASLAISRLQSDDEADYYCATWDDSLNGWVFGGGTKLTVLG | – | 36 nM |
| huPrP-18 (scFv, V domains shown) VH: QVQLVQSGAEVKKPGASVKVSCKASGYTFTSYPIHWVRQAPGQRLEWMGWLNPGTGVTKYSQNFQGRVTLTSDTSANTAYLELSSLRSEDTALYYCTRDPLDSRKNWFDPWGQGTLVTVSS VL: SYVLTQPPSASGTPGQRVTISCSGSNSNIGTNFVYWYQQLPGTAPKLLIYRNNQRPSGVPDRFSGSKSGTSASLAISGLRSEDEADYYCAAWDDSLSGRVFGGGTQLTVLG | 60 nM | 20 nM |
| boPrP-15 (scFv) chain 1: QVQLVQSGAEVKKPGASVKVSCKASGYTFTSYGISWVRQAPGQGLEWMGWISAYNGNTNYAQKLQGRVTMTTDTSTSTAYMELRSLRSDDTAVYYCARYGGRIAAASYNWFDPWGQGTLAICPDSACLRVWVSWTVDHLVTVSS chain 2: QSALTQPASVSGSPGQSITISCTGTSSDVGGYNYVSWYQQHPGKAPRLMIYDVSNRPSGVSNRFSGSKSGNTASLTISGLQSEDEADYYCSSYTSSSTLVFGTGTKLTVLG | 4.6 nM | 7.8 nM |
